In the assay the target is T1, IL-1R1 on MRC-5 cells (ATCC CCL-171) (human, UniProt P14778 18-569).
T1 sequence (looked up): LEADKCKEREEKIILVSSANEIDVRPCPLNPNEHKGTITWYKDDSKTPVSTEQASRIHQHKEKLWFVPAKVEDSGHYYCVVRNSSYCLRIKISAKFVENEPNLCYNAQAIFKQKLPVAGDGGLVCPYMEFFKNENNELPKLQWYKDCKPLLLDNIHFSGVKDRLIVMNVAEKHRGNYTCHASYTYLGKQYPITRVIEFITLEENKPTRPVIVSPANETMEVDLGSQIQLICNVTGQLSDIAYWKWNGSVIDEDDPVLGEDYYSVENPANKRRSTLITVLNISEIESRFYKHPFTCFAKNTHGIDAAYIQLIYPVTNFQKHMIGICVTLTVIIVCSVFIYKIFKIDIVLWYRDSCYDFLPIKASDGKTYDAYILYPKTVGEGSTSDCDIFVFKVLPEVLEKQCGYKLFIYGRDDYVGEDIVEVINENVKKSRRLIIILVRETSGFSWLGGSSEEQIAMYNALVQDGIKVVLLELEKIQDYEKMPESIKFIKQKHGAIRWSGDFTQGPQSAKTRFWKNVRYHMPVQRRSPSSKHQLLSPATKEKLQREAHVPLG
The assay is described as follows: cell-based or functional assay.

B1: DOM4-122-6 (other)
VL: DIQMTQSPSSLSASVGDRVTITCRASQWIGRELRWYQQKPGKAPMFLIYHASRLQSGVPSRFSGSGSGTDFTLTISSLQPEDFATYYCQQYHGWPLTFGQGTKVEIKR
For B1, the “ND50, inhibition of IL-1-induced IL-8 release from MRC-5 cells” value (“ND50, inhibition” below) was ~10 nM.

B2: DOM4-129-1 (other)
VL: DIQMTQSPSSLSASVGDRVTITCRASQNIDRELRWYQQKPGKAPMFLIYHASRLQRGVPSRFSGSGSGTDFTLTISSLQPEDFATYYCQQYHDFPLTFGQGTKVEIKR
Regarding B2, the “ND50, inhibition” value was ~10 nM.

B3: DOM4-122-23 (other)
VL: DIQMTQSPSSLSASVGDRVTITCRASQWIGRELRWYQQKPGKAPMFLIYHASRLQRGVPSRFSGSGSGTDFTLTISSLQPEDFATYYCQQYHGWPLTFGQGTKVEIKR
Regarding B3, the “ND50, inhibition” value was ~1 nM.
